According to article doi:10.1101/2023.03.21.533612:

Target: NStr-M35_S, M35 short version (aa 2-452) with N-terminal Twin-Strep tag and TEV cleavage sequence (murine cytomegalovirus (MCMV))
Assay: SEC-MALS

**Q.** Which stoichiometry N does the source give for “NStr-M35_S, M35 short version (aa 2-452) with N-terminal Twin-Strep tag and TEV cleavage sequence (domain or fragment)” here?
**A.** The stoichiometry N was 2.
